Usually stoichiometry N stands for a count of units in the complex or per binding partner.

Read-outs that look alike come from different tables or passages of the source.

This passage reports percent of total counts in the peak of 3CD dimer with one cloverleaf RNA and stoichiometry N results from publication PMC11900867.

For assay [1], the target named is Coxsackievirus B3 (CVB3) 3CD protein (uncleaved 3C^pro-3D^pol) with Cys147Ala, Gly55Ala, Asp58Ala, Val63Ala (coxsackievirus B3 (CVB3)). Nature of the assay: mass photometry.
The target is the same in assay [2]. The experiment in a line: mass photometry. The source holds these as a separate data set.
Assay [3] concerns the target Coxsackievirus B3 (CVB3) 3C^pro protease, protease-inactive mutant (Cys147Ala) with Gly55Ala, Asp58Ala, Val63Ala (coxsackievirus B3 (CVB3)). Nature of the assay: mass photometry.
Assay [4] shares this target. Nature of the assay: SEC.

The substance “Coxsackievirus B3 (CVB3) 3CD protein (uncleaved 3C^pro-3D^pol) with Cys147Ala, Gly55Ala, Asp58Ala, Val63Ala (enzyme)” registered a percent of total counts in the peak of 3CD dimer with one cloverleaf RNA in assay [1] of 19 to 23%. In addition, the stoichiometry N in assay [1] and in assay [2] was 2 in each case.

With “Coxsackievirus B3 (CVB3) 3C^pro protease, protease-inactive mutant (Cys147Ala) with Gly55Ala, Asp58Ala, Val63Ala (enzyme)”, the stoichiometry N in assay [3] and in assay [4] was 2 each time.
